Biological target: HLA-A*02:01 (Homo sapiens, UniProt P04439, D140Y/D185E/D98H/E176V/E277Q/G131W/G231S/I119V/I121R/I166T/I218V/L300P/L318F/N151K/N90K/P208A/P217A/Q86G/Q94H/R138H/R169H/T345S)
Assay: MHC binding assay (UV-ligand exchange, beta2m ELISA, peptide exchange yield)
Conditions: binding of HLA-class I restricted peptides to HLA-A*02:01, ranged by peptide exchange yield (UV-ligand exchange, β2m ELISA)
Description: Candidate peptides for T cell based therapies according to the present invention were further tested for their MHC binding capacity (affinity). The individual peptide-MHC complexes were produced by UV-ligand exchange, where a UV-sensitive peptide is cleaved upon UV-irradiation, and exchanged with the peptide of interest as analyzed. Only peptide candidates that can effectively bind and stabilize the peptide-receptive MHC molecules prevent dissociation of the MHC complexes. To determine the yield of the exchange reaction, an ELISA was performed based on the detection of the light chain (β2m) of stabilized MHC complexes. The assay was performed as generally described in Rodenko et al. (Rodenko et al., 2006).
96 well MAXISorp plates (NUNC) were coated over night with 2ug/ml streptavidin in PBS at room temperature, washed 4× and blocked for 1 h at 37° C. in 2% BSA containing blocking buffer. […] Peptide-MHC monomers of the UV-exchange reaction were diluted 100 fold in blocking buffer. Samples were incubated for 1 h at 37° C., washed four times, incubated with 2ug/ml HRP conjugated anti-82m for 1 h at 37° C., washed again and detected with TMB solution that is stopped with […]. Absorption was measured at 450 nm. Candidate peptides that show a high exchange yield (preferably higher than 50%, most preferred higher than 75%) are generally preferred for a generation and production of antibodies or fragments thereof, and/or T cell receptors or fragments thereof, as they show sufficient avidity to the MHC molecules and prevent dissociation of the MHC complexes.

167 (KVLEVTEEFGV; listed as Homo sapiens) [compound 167]
Peptide exchange: ″+++″ (≥50% = +++)

168 (KILDADIQL; listed as Homo sapiens) [compound 168]
Peptide exchange: ″++++″ (≥75% = ++++)

169 (NLPEYLPFV; listed as Homo sapiens) [compound 169]
Peptide exchange: ″+++″ (≥50% = +++)

170 (RLQETLSAA; listed as Homo sapiens) [compound 170]
Peptide exchange: ″+++″ (≥50% = +++)

171 (LLLPLQILL; listed as Homo sapiens) [compound 171]
Peptide exchange: ″+++″ (≥50% = +++)

172 (VLYSYTIITV; listed as Homo sapiens) [compound 172]
Peptide exchange: ″++″ (≥20% = ++)

173 (LLDSASAGLYL; listed as Homo sapiens) [compound 173]
Peptide exchange: ″+++″ (≥50% = +++)

174 (ALAQYLITA; listed as Homo sapiens) [compound 174]
Peptide exchange: ″+++″ (≥50% = +++)

175 (YLFENISQL; listed as Homo sapiens) [compound 175]
Peptide exchange: ″+++″ (≥50% = +++)

176 (YLMEGSYNKVFL; listed as Homo sapiens) [compound 176]
Peptide exchange: ″++″ (≥20% = ++)

177 (YLLPEEYTSTL; listed as Homo sapiens) [compound 177]
Peptide exchange: ″++++″ (≥75% = ++++)

178 (ALTEIAFVV; listed as Homo sapiens) [compound 178]
Peptide exchange: ″++++″ (≥75% = ++++)

179 (KVLNELYTV; listed as Homo sapiens) [compound 179]
Peptide exchange: ″+++″ (≥50% = +++)

180 (FQIDPHSGLVTV; listed as Homo sapiens) [compound 180]
Peptide exchange: ″++″ (≥20% = ++)

181 (LLWAGTAFQV; listed as Homo sapiens) [compound 181]
Peptide exchange: ″+++″ (≥50% = +++)

182 (MLLEAPGIFL; listed as Homo sapiens) [compound 182]
Peptide exchange: ″+++″ (≥50% = +++)

183 (FGLDLVTEL; listed as Homo sapiens) [compound 183]
Peptide exchange: ″+++″ (≥50% = +++)

184 (YLMDINGKMWL; listed as Homo sapiens) [compound 184]
Peptide exchange: ″+++″ (≥50% = +++)

185 (FLIDDKGYTL; listed as Homo sapiens) [compound 185]
Peptide exchange: ″++″ (≥20% = ++)

186 (TLFFQQNAL; listed as Homo sapiens) [compound 186]
Peptide exchange: ″++″ (≥20% = ++)

187 (RQISIRGIVGV; listed as Homo sapiens) [compound 187]
Peptide exchange: ″+++″ (≥50% = +++)

188 (GLFPVTPEAV; listed as Homo sapiens) [compound 188]
Peptide exchange: ″+++″ (≥50% = +++)

189 (ALQRKLPYV; listed as Homo sapiens) [compound 189]
Peptide exchange: ″+++″ (≥50% = +++)

190 (FLSSLTETI; listed as Homo sapiens) [compound 190]
Peptide exchange: ″+++″ (≥50% = +++)

191 (LLQEGQALEYV; listed as Homo sapiens) [compound 191]
Peptide exchange: ″++″ (≥20% = ++)

192 (KMLDGASFTL; listed as Homo sapiens) [compound 192]
Peptide exchange: ″+++″ (≥50% = +++)

193 (QLLDADGFLNV; listed as Homo sapiens) [compound 193]
Peptide exchange: ″+++″ (≥50% = +++)

194 (ALPLFVITV; listed as Homo sapiens) [compound 194]
Peptide exchange: ″+++″ (≥50% = +++)

195 (GLFADLLPRL; listed as Homo sapiens) [compound 195]
Peptide exchange: ″+++″ (≥50% = +++)

196 (YLYSVEIKL; listed as Homo sapiens) [compound 196]
Peptide exchange: ″++++″ (≥75% = ++++)

197 (ALGPEGGRV; listed as Homo sapiens) [compound 197]
Peptide exchange: ″++″ (≥20% = ++)

198 (KTINKVPTV; listed as Homo sapiens) [compound 198]
Peptide exchange: ″+++″ (≥50% = +++)

200 (LLFGSVQEV; listed as Homo sapiens) [compound 200]
Peptide exchange: ″+++″ (≥50% = +++)

201 (RLVDYLEGI; listed as Homo sapiens) [compound 201]
Peptide exchange: ″+++″ (≥50% = +++)

202 (ALLDQQGSRWTL; listed as Homo sapiens) [compound 202]
Peptide exchange: ″+++″ (≥50% = +++)

204 (KIAENVEEV; listed as Homo sapiens) [compound 204]
Peptide exchange: ″++″ (≥20% = ++)

205 (SLYPGTETMGL; listed as Homo sapiens) [compound 205]
Peptide exchange: ″+++″ (≥50% = +++)

206 (VLQEGKLQKLAQL; listed as Homo sapiens) [compound 206]
Peptide exchange: ″+++″ (≥50% = +++)

207 (GLTSTNAEV; listed as Homo sapiens) [compound 207]
Peptide exchange: ″++″ (≥20% = ++)

208 (KISPVTFSV; listed as Homo sapiens) [compound 208]
Peptide exchange: ″+++″ (≥50% = +++)

209 (KLIESKHEV; listed as Homo sapiens) [compound 209]
Peptide exchange: ″++″ (≥20% = ++)

210 (LLLNAVLTV; listed as Homo sapiens) [compound 210]
Peptide exchange: ″++″ (≥20% = ++)

211 (LLWPGAALL; listed as Homo sapiens) [compound 211]
Peptide exchange: ″++″ (≥20% = ++)

212 (ALWDQDNLSV; listed as Homo sapiens) [compound 212]
Peptide exchange: ″++″ (≥20% = ++)

214 (FLLDLDPLLL; listed as Homo sapiens) [compound 214]
Peptide exchange: ″+++″ (≥50% = +++)

215 (QLINHLHAV; listed as Homo sapiens) [compound 215]
Peptide exchange: ″+++″ (≥50% = +++)

216 (NLWEDPYYL; listed as Homo sapiens) [compound 216]
Peptide exchange: ″+++″ (≥50% = +++)

217 (ALIHPVSTV; listed as Homo sapiens) [compound 217]
Peptide exchange: ″++″ (≥20% = ++)

218 (SALEELVNV; listed as Homo sapiens) [compound 218]
Peptide exchange: ″++″ (≥20% = ++)

219 (KLSDIGITV; listed as Homo sapiens) [compound 219]
Peptide exchange: ″+++″ (≥50% = +++)

220 (LLQKFVPEI; listed as Homo sapiens) [compound 220]
Peptide exchange: ″++″ (≥20% = ++)

221 (ALYEEGLLL; listed as Homo sapiens) [compound 221]
Peptide exchange: ″++″ (≥20% = ++)

222 (NLIENVQRL; listed as Homo sapiens) [compound 222]
Peptide exchange: ″++″ (≥20% = ++)

223 (ALLENIALYL; listed as Homo sapiens) [compound 223]
Peptide exchange: ″+++″ (≥50% = +++)

224 (TLIDAQWVL; listed as Homo sapiens) [compound 224]
Peptide exchange: ″+++″ (≥50% = +++)

225 (SLLKVLPAL; listed as Homo sapiens) [compound 225]
Peptide exchange: ″+++″ (≥50% = +++)

226 (MLYVVPIYL; listed as Homo sapiens) [compound 226]
Peptide exchange: ″++″ (≥20% = ++)

227 (ALMNTLLYL; listed as Homo sapiens) [compound 227]
Peptide exchange: ″++″ (≥20% = ++)

228 (AMQEYIAVV; listed as Homo sapiens) [compound 228]
Peptide exchange: ″++″ (≥20% = ++)

229 (RLPGPLGTV; listed as Homo sapiens) [compound 229]
Peptide exchange: ″++″ (≥20% = ++)

230 (ILVDWLVEV; listed as Homo sapiens) [compound 230]
Peptide exchange: ″+″ (≥10% = +)

231 (FLSPQQPPLLL; listed as Homo sapiens) [compound 231]
Peptide exchange: ″++″ (≥20% = ++)

232 (ALLEAQDVELYL; listed as Homo sapiens) [compound 232]
Peptide exchange: ″++″ (≥20% = ++)

233 (VLSETLYEL; listed as Homo sapiens) [compound 233]
Peptide exchange: ″++″ (≥20% = ++)

234 (ALMEDTGRQML; listed as Homo sapiens) [compound 234]
Peptide exchange: ″++″ (≥20% = ++)

235 (YLNDLHEVLL; listed as Homo sapiens) [compound 235]
Peptide exchange: ″++++″ (≥75% = ++++)

236 (GLLEAKVSL; listed as Homo sapiens) [compound 236]
Peptide exchange: ″+++″ (≥50% = +++)

237 (ALLEASGTLLL; listed as Homo sapiens) [compound 237]
Peptide exchange: ″++++″ (≥75% = ++++)

238 (YLISFQTHI; listed as Homo sapiens) [compound 238]
Peptide exchange: ″+++″ (≥50% = +++)

239 (AAFAGKLLSV; listed as Homo sapiens) [compound 239]
Peptide exchange: ″+++″ (≥50% = +++)

240 (ILLEQAFYL; listed as Homo sapiens) [compound 240]
Peptide exchange: ″+++″ (≥50% = +++)

From US10253076B2, “Peptides and combination of peptides for use in immunotherapy against ovarian cancer and other cancers” (immatics biotechnologies GmbH, priority 2015, dated 2019)
